Data on four proteins can be found in US20240132857.

The data set addresses Ub^1-74, P0CG48.

Ub^1-74, P0CG48, sequence (P0CG48 whole entry, looked up, tested part not stated): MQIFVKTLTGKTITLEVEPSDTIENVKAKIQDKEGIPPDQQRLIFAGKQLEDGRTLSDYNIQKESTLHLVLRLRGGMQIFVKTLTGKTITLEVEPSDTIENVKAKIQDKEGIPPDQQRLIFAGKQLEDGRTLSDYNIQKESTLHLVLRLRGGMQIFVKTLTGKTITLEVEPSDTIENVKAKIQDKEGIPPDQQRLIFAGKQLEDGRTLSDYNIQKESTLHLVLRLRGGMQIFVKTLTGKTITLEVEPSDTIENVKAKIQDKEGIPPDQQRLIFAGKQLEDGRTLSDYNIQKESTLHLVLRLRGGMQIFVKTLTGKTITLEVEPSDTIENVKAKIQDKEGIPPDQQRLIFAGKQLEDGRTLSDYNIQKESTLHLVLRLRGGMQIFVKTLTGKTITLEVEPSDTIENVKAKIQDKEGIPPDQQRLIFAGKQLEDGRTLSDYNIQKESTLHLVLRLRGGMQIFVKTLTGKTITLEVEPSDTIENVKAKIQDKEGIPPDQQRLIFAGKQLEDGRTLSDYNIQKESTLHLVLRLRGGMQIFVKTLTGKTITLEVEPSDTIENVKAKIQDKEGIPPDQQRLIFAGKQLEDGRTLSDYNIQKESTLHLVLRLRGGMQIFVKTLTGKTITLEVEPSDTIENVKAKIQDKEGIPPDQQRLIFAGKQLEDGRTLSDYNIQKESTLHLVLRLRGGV

B1: Ube2N^D119A (protein)
chain: GMAGLPRRIIKETQRLLAEPVPGIKAEPDESNARYFHVVIAGPQDSPFEGGTFKLELFLPEEYPMAAPKVRFMTKIYHPNVDKLGRICLDILKDKWSPALQIRTVLLSIQALLSAPNPDAPLANDVAEQWKTNEAQAIETARAWTRLYAMNNI
With B1, the “KM of di-ubiquitin formation, fold increase against wild-type Ube2N” value is “modestly increased the KM by ˜4 and ˜7-fold, respectively”; the “kcat of di-ubiquitin formation, fold reduction against wild-type Ube2N” value (“kcat … fold reduction against wild-type Ube2N” below) was “Mutation to alanine reduced kcat 100-fold”.

B2: Ube2N^D119N (protein)
chain: GMAGLPRRIIKETQRLLAEPVPGIKAEPDESNARYFHVVIAGPQDSPFEGGTFKLELFLPEEYPMAAPKVRFMTKIYHPNVDKLGRICLDILKDKWSPALQIRTVLLSIQALLSAPNPDNPLANDVAEQWKTNEAQAIETARAWTRLYAMNNI
For B2, the “KM of di-ubiquitin formation, fold increase against wild-type Ube2N” value is “modestly increased the KM by ˜4 and ˜7-fold, respectively”; the “kcat … fold reduction against wild-type Ube2N” value is reported as “mutation to asparagine 30-fold”.

B3: Ube2N^N123A (protein)
chain: GMAGLPRRIIKETQRLLAEPVPGIKAEPDESNARYFHVVIAGPQDSPFEGGTFKLELFLPEEYPMAAPKVRFMTKIYHPNVDKLGRICLDILKDKWSPALQIRTVLLSIQALLSAPNPDDPLAADVAEQWKTNEAQAIETARAWTRLYAMNNI
For the protein B3, the “kcat … fold reduction against wild-type Ube2N” value was “The ˜3-fold reduction in kcat”.

B4: Ube2N^D124A (protein)
chain: GMAGLPRRIIKETQRLLAEPVPGIKAEPDESNARYFHVVIAGPQDSPFEGGTFKLELFLPEEYPMAAPKVRFMTKIYHPNVDKLGRICLDILKDKWSPALQIRTVLLSIQALLSAPNPDDPLANAVAEQWKTNEAQAIETARAWTRLYAMNNI
Consider B4, for which the “kcat … fold reduction against wild-type Ube2N” value is on record as “The ˜3-fold reduction in kcat”.
